Measurements: publication doi:10.1101/2023.03.19.533240

Target: MBP-DDX3X WT (UniProt O00571 1-662)
Assay: time-resolved fluorescence anisotropy

MBP-DDX3X WT, sequence (O00571 whole entry): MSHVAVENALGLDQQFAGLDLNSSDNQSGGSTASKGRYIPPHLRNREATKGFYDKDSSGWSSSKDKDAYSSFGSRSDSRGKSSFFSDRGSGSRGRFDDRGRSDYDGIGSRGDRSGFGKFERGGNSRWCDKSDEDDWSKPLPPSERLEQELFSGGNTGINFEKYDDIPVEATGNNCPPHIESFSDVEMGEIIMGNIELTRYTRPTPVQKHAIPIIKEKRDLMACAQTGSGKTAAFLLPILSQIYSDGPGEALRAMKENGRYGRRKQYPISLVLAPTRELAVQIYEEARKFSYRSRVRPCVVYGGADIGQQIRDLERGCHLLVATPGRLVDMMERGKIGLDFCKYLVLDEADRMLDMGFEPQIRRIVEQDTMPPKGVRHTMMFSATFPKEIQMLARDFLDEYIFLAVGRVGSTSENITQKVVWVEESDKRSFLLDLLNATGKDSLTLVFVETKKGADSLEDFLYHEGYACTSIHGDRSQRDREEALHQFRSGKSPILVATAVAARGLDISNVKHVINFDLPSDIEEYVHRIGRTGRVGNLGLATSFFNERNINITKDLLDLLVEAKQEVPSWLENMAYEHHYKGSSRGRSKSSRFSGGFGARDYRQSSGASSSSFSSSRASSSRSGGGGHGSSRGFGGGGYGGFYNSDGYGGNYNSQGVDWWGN

UUUUUUUUUUUUUUUUUUUUUUUUCGGAGCGACGGCAGCGGU (ssRNA) [long strand 42-mer ssRNA]: binds.
